Results on 1 molecule are retold here after patent US7563582 (Sanofi, dated 2009).

The experiment has as its target T1, GST-zyxin(1-142) (UniProt Q15942 1-142).
T1 construct: Expressed in E. coli; also called zyxin derivative; GST fusion protein with the N-terminus of zyxin; not shown: glutathione S-transferase
T1 sequence (looked up): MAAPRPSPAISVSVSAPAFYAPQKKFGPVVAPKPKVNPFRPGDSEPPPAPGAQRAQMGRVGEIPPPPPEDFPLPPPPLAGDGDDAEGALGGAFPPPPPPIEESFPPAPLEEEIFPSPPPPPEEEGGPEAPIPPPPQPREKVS
The experiment is described as follows: solid-phase assay (DELFIA) in 384-well plates, 20 µl per well, GST-zyxin(1-142) coated, VASP as ligand. As to the method:
In the solid-phase assay, a binding partner (VASP or zyxin) was immobilized on the surface of a microtiter plate (MTP) (=coating). The unsaturated binding sites on the surface of the plastic were blocked, and the surface was then incubated with the respective other binding partners. After the incubation, excess unattached protein was removed in a washing step. Using suitable antibodies, it was now possible to detect and quantify the specifically bound protein. Here, it was possible to improve the signal-noise (S/N) ratio considerably by using lanthanide chelates as fluorescent labels for the antibodies and the measurement of the time-resolved fluorescence.
The volume per well used depended on the selected MTP format (50 µl or 100 µl for 96-well plates, 20 µl for 384-well plates).

B1: recombinant human VASP protein with complete amino acid sequence obtained from insect cells (other, UniProt P50552 2-380, looked up)
chain: SETVICSSRATVMLYDDGNKRWLPAGTGPQAFSRVQIYHNPTANSFRVVGRKMQPDQQVVINCAIVRGVKYNQATPNFHQWRDARQVWGLNFGSKEDAAQFAAGMASALEALEGGGPPPPPALPTWSVPNGPSPEEVEQQKRQQPGPSEHIERRVSNAGGPPAPPAGGPPPPPGPPPPPGPPPPPGLPPSGVPAAAHGAGGGPPPAPPLPAAQGPGGGGAGAPGLAAAIAGAKLRKVSKQEEASGGPTAPKAESGRSGGGGLMEEMNAMLARRRKATQVGEKTPKDESANQEEPEARVPAQSESVRRPWEKNSTTLPRMKSSSSVTTSETQPCTPSSSDYSDLQRVKQELLEEVKKELQKVKEEIIEAFVQELRKRGSP
notes: mature; also called baculo VASP; vasodilator-stimulated phosphoprotein
As for B1, the S/N ratio is about 100.
